{"source": "paper PMC10778600", "about": "“Conserved Residues Lys64 and Glu78 at the Subunit Surface of Tau Glutathione Transferase in Rice Affect Structure and Enzymatic Properties” (International Journal of Molecular Sciences, 2023)", "key": {"[1]": {"target": "OsGSTU17 mutant E78A (Oryza sativa)", "assay": "native gel or EMSA; native PAGE of the purified proteins, gel pre-run 30-60 min, 100-200 V, 0-4 °C; BSA and ovalbumin as markers; molecular weight compared with SDS-PAGE of the denatured proteins"}, "[2]": {"target": "OsGSTU17 mutant K64A (Oryza sativa)", "assay": "native gel or EMSA; native PAGE of the purified proteins, gel pre-run 30-60 min, 100-200 V, 0-4 °C; BSA and ovalbumin as markers; molecular weight compared with SDS-PAGE of the denatured proteins"}, "[3]": {"target": "wild-type OsGSTU17 (rice tau class glutathione transferase) (Oryza sativa)", "assay": "native gel or EMSA; native PAGE of the purified proteins, gel pre-run 30-60 min, 100-200 V, 0-4 °C; BSA and ovalbumin as markers; molecular weight compared with SDS-PAGE of the denatured proteins"}, "[4]": {"substrate": "O=[N+]([O-])c1ccc(Cl)c2nonc12", "assay": "steady-state kinetics, non-linear regression", "type": "biochemical, Oryza sativa", "settings": "GSH fixed at 1.0 mM; NBD-Cl 0.2 to 1.0 mM", "text": "steady-state kinetics, non-linear regression on OsGSTU17"}}}
{"molecule": "OsGSTU17 mutant E78A (enzyme)", "values": [{"measurement": "stoichiometry N", "setting": "[1]", "value": 2}]}
{"molecule": "OsGSTU17 mutant K64A (enzyme)", "values": [{"measurement": "stoichiometry N", "setting": "[2]", "value": 2}]}
{"molecule": "wild-type OsGSTU17 (rice tau class glutathione transferase) (enzyme)", "values": [{"measurement": "stoichiometry N", "setting": "[3]", "value": 2}]}
{"molecule": "OsGSTU17 (Oryza sativa Japonica Group; K64A) (protein) MAADKGVKVFGMWASPMAIRVEWALRLKGVDYEYVDEDLANKSEALLRHNPVTKKVPVLVHDGAPLAESTVIVEYIDEAWKHGYPIMPSDPFDRAQARFWARFAEEKCNAALYPIFMTTGEEQRKLVHEAQQCLKTLETALEGKKFFGGDAFGYLDIVTGWFAYWLPVIEEACGVEVVTDEALPLMKAWFDRVLAVDAVKAVLPPRDKLVALNKARREQILSA", "values": [{"measurement": "Km", "setting": "[4]", "value": "507 ± 25", "unit": "µM"}, {"measurement": "Vmax", "setting": "[4]", "value": 0.287, "unit": "µM/min/mg"}, {"measurement": "kcat", "setting": "[4]", "value": 0.217, "unit": "s⁻¹"}, {"measurement": "kcat/Km", "setting": "[4]", "value": 428, "unit": "M⁻¹ s⁻¹"}]}
